Numbering of substitutions follows the chain as printed. Read-outs that look alike come from different tables or passages of the source.
What was measured:
[1] = biological target: T1, rhNR10 (recombinant human NR10) (human, UniProt Q8NI17 20-519, limits assumed); assay: SPR, Biacore T100; antibody captured on Protein A, rhNR10 as analyte
T1 construct: also called IL-31 receptor; IL31RA
T1 sequence: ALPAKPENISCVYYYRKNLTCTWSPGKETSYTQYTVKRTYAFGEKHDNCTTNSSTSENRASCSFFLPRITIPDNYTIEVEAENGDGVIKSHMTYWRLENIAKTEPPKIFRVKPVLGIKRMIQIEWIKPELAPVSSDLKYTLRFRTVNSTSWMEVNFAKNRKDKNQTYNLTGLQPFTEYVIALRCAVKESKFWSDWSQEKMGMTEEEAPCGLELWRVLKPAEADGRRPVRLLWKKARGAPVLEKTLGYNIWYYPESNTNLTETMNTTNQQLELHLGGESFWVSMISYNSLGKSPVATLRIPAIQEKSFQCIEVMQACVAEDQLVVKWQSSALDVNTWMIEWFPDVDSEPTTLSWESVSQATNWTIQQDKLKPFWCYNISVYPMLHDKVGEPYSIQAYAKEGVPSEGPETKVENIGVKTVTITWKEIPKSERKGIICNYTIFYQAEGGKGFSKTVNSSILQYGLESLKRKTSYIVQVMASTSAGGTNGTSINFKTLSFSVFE
Protocol: (§1) Kinetic analysis of the antigen-antibody reaction was carried out using Biacore T100 (GE Healthcare Biosciences). The antigen-antibody interaction was measured by immobilizing rec-Protein A (hereinafter Protein A) (ZYMED) onto a sensor chip, capturing an antibody on the immobilized Protein A, and then reacting the antigen as an analyte. Various concentrations of rhNR10 were used as the antigen. The kinetic parameters, association rate constant kₐ (1/Ms) and dissociation rate constant kd (1/s), were calculated from the sensorgrams obtained by the measurement. Then, KD (M) was determined based on the rate constants. Each parameter was determined using Biacore T100 Evaluation Software version 1.1 (GE Healthcare Biosciences).
(§2) The running buffer used was HBS-EP+. Each antibody was prepared at 0.25 μg/ml, or prepared so that about 100 RU would bind to Protein A. rhNR10 used as an analyte was prepared at 0, 38.5, 77.0, and 154 nM, or at 0, 19.25, and 77.01 nM using HBS-EP+. In the measurement, first, the antibody solution was captured on Protein A, and an analyte solution was reacted at a flow rate of 20 μL/min for three minutes. Then, the solution was switched to HBS-EP+, and the dissociation phase was measured for five minutes. After measurement of the dissociation phase, the sensor chip was regenerated by washing with 10 mM glycine-HCl (pH 1.5). The obtained sensorgrams were kinetically analyzed using the Biacore-specific data analysis software, Biacore T100 Evaluation Software Version 1.1.

[2] = biological target: T1, rhNR10 (recombinant human NR10); assay: as above; remark: listed apart in the source
Protocol: as §1, §2

[3] = biological target: T1, rhNR10 (recombinant human NR10); assay: as above; remark: listed apart in the source
Protocol: as §1, §2

[4] = biological target: T1, rhNR10 (recombinant human NR10); assay: as above; remark: listed apart in the source
Protocol: as §1, §2

[5] = biological target: T2, soluble human FcRn (FcRn extracellular domain / beta2-microglobulin complex) (human, UniProt P55899 24-290; P61769 21-119); assay: SPR, Biacore 3000; antibody captured on chip, soluble human FcRn as analyte, steady state affinity, pH 6.0
T2 construct: The expression constructs contain the signal regions (FcRn Met1-Leu290; beta2-microglobulin Met1-Met119); also called hFcRn
Protocol: The binding to human FcRn was assessed using Biacore 3000. An antibody was bound to Protein L or rabbit anti-human IgG Kappa chain antibody immobilized onto a sensor chip, human FcRn was added as an analyte for interaction with the antibody, and the affinity (KD) was calculated from the amount of bound human FcRn. Specifically, Protein L was immobilized onto sensor chip CM5 (BIACORE) by the amine coupling method using 50 mM Na-phosphate buffer (pH 6.0) containing 150 mM NaCl as the running buffer. Then, an antibody was diluted with the running buffer containing 0.02% Tween20, and injected and allowed to bind to the chip. Human FcRn was then injected to assess the binding activity of the antibody to the human FcRn.
The affinity was calculated using BIAevaluation software. The obtained sensorgram was used to calculate the amount of hFcRn bound to the antibody immediately before the end of human FcRn injection. This was fitted by the steady state affinity method to calculate the affinity of human FcRn for the antibody.

[6] = biological target: T1, rhNR10 (recombinant human NR10); assay: SPR, Biacore T100; antibody captured on Protein A, rhNR10 as analyte; remark: listed apart in the source
Protocol: as §1, §2

[7] = biological target: T3, cytoplasmic domain-lacking human NR10 on CHO cells (hNR10-expressing CHO cells) (human, UniProt Q8NI17 20-553); assay: FMAT competition on hNR10-expressing CHO cells: antibody titrated against FMAT Blue-labeled hIL-31; FL1 = cell-bound labeled hIL-31
T3 construct: also called NR10-expressing cells
T3 sequence: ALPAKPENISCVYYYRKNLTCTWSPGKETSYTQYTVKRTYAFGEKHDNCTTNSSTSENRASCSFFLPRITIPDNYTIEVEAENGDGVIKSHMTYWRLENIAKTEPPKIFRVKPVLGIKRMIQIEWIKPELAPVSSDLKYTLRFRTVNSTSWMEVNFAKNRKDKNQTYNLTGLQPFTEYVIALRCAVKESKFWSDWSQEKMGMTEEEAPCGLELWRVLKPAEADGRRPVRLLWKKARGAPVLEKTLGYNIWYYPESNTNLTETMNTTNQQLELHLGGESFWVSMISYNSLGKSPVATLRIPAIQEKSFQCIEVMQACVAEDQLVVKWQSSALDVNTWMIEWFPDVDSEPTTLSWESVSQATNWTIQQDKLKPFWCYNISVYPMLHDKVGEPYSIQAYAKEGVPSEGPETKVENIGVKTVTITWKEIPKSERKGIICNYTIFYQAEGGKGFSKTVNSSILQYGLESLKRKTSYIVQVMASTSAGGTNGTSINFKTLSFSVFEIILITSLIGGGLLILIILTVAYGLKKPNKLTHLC
Protocol: Human IL-31 (R&D Systems) was labeled with FMAT Blue Monofunctional Reactive Dye (Applied Biosystems). 100 μl of hIL-31 prepared at 0.5 mg/ml using 50 mM sodium phosphate buffer (pH 8.0) was mixed with 5.25 μl of 25 nmoles FMAT Blue dissolved in DMSO (Junsei). After vortexing, the mixture was allowed to stand at room temperature for 15 minutes. The FMAT Blue-conjugating reaction with hIL-31 was terminated by adding 5 μl of 1 M Tris-HCl (pH 7.4) and 1.1 μl of 10% Tween20, and then FMAT Blue-labeled hIL-31 and unreacted FMAT Blue were separated by gel filtration using Superdex 75 (GE Healthcare, 17-0771-01) column with 0.1% Tween20/PBS developing solution.
Antibodies were assessed for the activity of inhibiting the IL-31/NR10 binding by using hNR10-expressing CHO cells as described below. The chimeric NS22 antibody and NS22_H0L0 (H chain, H0-SKSC/SEQ ID NO: 54; L chain, L0/SEQ ID NO: 56) were diluted at an appropriate concentration using Assay buffer (10 mM HEPES, 140 mM NaCl, 2.5 mM CaCl₂, 3 mM MgCl₂, 2% FBS, 0.01% NaN₃, pH7.4), and further eight serial dilutions were prepared at a common dilution ration of 2. The dilutions were added at 40 μl/well to plates (96-Well FMAT Plates, Applied Biosystems). Then, FMAT Blue-labeled hIL-31 was diluted 400 times with Assay buffer, and added at 20 μl/well. Finally, a cell suspension adjusted to 2.5×10⁵ cells/ml using Assay buffer was added at 40 μl/well (final 1×10⁴ cells/well). Two hours after addition of cells, the fluorescence (FL1) was measured using the 8200 Cellular Detection System (Applied Biosystems).

T2 sequence (P55899 24-290 limits assumed, chain 1 of 2): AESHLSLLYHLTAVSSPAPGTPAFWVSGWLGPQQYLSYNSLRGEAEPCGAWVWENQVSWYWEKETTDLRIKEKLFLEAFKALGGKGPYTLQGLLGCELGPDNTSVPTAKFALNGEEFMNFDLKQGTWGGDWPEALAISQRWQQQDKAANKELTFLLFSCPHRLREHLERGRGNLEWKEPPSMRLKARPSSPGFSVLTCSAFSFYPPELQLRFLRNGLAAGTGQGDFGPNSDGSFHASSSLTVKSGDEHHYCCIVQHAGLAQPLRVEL
T2 sequence (P61769 21-119 limits assumed, chain 2 of 2): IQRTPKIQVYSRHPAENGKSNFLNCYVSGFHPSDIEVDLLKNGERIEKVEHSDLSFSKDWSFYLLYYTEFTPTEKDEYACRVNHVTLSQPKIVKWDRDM

B1: H0L0-M58 (antibody)
heavy: QVQLVQSGAEVKKPGASVKVSCKASGYTFTGYIMNWVRQAPGQGLEWMGLINPYNGGTSYNQKFKGRVTITADESTSTAYMELSSLRSEDTAVYYCARDGYDDGPYTMDYWGQGTLVTVSSASTKGPSVFPLAPSSKSTSGGTAALGCLVKDYFPEPVTVSWNSGALTSGVHTFPAVLQSSGLYSLSSVVTVPSSNFGTQTYTCNVDHKPSNTKVDKTVERKSCVECPPCPAPPVAGPSVFLFPPKPKDTLMISRTPEVTCVVVDVSQEDPEVQFNWYVDGVEVHNAKTKPREEQFNSTFRVVSVLTVVHQDWLNGKEYKCKVSNKGLPAPIEKTISKTKGQPREPQVYTLPPSQEEMTKNQVSLTCLVKGFYPSDIAVEWESNGQPENNYKTTPPMLDSDGSFFLYSKLTVDKSRWQEGNVFSCSVMHEALHNHYTQKSLSLSP
light: DIQMTQSPSSLSASVGDRVTITCRTSENIYSFLAWYQQKPGKAPKLLIYNAKTLAKGVPSRFSGSGSGTDFTLTISSLQPEDFATYYCQHHYESPLTFGGGTKVEIKRTVAAPSVFIFPPSDEQLKSGTASVVCLLNNFYPREAKVQWKVDNALQSGNSQESVTEQDSKDSTYSLSSTLTLSKADYEKHKVYACEVTHQGLSSPVTKSFNRGEC
notes: also called H0L0 (H chain, H0-M58)
B1 was tested, and the Kd [1] was 4.8 nM, the koff [1] was 0.00069 s⁻¹ and the kon [1] was 140000 M⁻¹ s⁻¹. It also gave a Kd [2] of 4.8 nM, a koff [2] of 0.00087 s⁻¹ and a kon [2] of 180000 M⁻¹ s⁻¹. For the same binder, the Kd [3] was 4.8 nM, the koff [3] was 0.00078 s⁻¹ and the kon [3] was 160000 M⁻¹ s⁻¹. The Kd [4] was 4.2 nM, the koff [4] was 0.00088 s⁻¹ and the kon [4] was 210000 M⁻¹ s⁻¹. For the same binder, the Kd [5] was 910 nM.

B2: H0L0-IgG1 (antibody)
heavy: not shown
light: B1 light
In the case of B2, the Kd [5] is reported as 1070 nM.

B3: huPM1-M58 (humanized anti-IL-6 receptor antibody with constant region M58) (antibody)
heavy: QVQLQESGPGLVRPSQTLSLTCTVSGYSITSDHAWSWVRQPPGRGLEWIGYISYSGITTYNPSLKSRVTMLRDTSKNQFSLRLSSVTAADTAVYYCARSLARTTAMDYWGQGSLVTVSSASTKGPSVFPLAPSSKSTSGGTAALGCLVKDYFPEPVTVSWNSGALTSGVHTFPAVLQSSGLYSLSSVVTVPSSNFGTQTYTCNVDHKPSNTKVDKTVERKSCVECPPCPAPPVAGPSVFLFPPKPKDTLMISRTPEVTCVVVDVSQEDPEVQFNWYVDGVEVHNAKTKPREEQFNSTFRVVSVLTVVHQDWLNGKEYKCKVSNKGLPAPIEKTISKTKGQPREPQVYTLPPSQEEMTKNQVSLTCLVKGFYPSDIAVEWESNGQPENNYKTTPPMLDSDGSFFLYSKLTVDKSRWQEGNVFSCSVMHEALHNHYTQKSLSLSP
light: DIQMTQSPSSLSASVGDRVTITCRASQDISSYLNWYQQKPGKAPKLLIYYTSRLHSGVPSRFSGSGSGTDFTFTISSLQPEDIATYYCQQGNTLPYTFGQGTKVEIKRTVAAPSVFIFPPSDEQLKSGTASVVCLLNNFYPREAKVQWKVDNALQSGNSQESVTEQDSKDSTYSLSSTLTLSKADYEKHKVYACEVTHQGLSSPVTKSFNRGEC
In the case of B3, the Kd [5] is reported as 1170 nM and the “fold binding activity relative to huPM1-IgG1” value [5] is reported as ~1.4 fold.

B4: Ha401La402 (Ha401-SKSC / La402) (antibody, V domains shown)
VH: QVQLVQSGAEVKKPGASVKVSCKASGYTFTGYVINWVRQAPGQGLEWMGLINPYNGGTDYNQKFKGRVTITADESTSTAYMELSSLRSEDTAVYYCARDGYDDGPYTMDYWGQGTLVTVSS
VL: DIQMTQSPSSLSASVGDRVTITCQTSENIYRFVAWYQQKPGKAPKLLIYNAKTLAKGVPSRFSGSGSGTDFTLTISSLQPEDFATYYCQHHYDSPLTFGGGTKVEIKR
With B4 the Kd [6] was 0.5 nM, the koff [6] was 0.00029 s⁻¹ and the kon [6] was 580000 M⁻¹ s⁻¹.

B5: H0L17 (H0-M58 / L17) (antibody, V domains shown)
VH: B4 VH with V33I, I34M, D59S
VL: B4 VL with T25A, N28D, R31S, K52Q, L54E, K56Q
Work on B5 yielded a Kd [3] of 2.1 nM, a koff [3] of 0.00081 s⁻¹ and a kon [3] of 390000 M⁻¹ s⁻¹.

B6: H17L11 (H17-M58 / L11) (antibody, V domains shown)
VH: B4 VH with I34L, Q62P, K63Q, K65Q, G66D
VL: B4 VL with N28D, K52Q, L54E, K56Q
In the case of B6, the Kd [1] is reported as 0.62 nM, the koff [1] is reported as 0.00026 s⁻¹ and the kon [1] is reported as 430000 M⁻¹ s⁻¹.

B7: humanized NS22 H1L0 (H1-SKSC / L0) (antibody, V domains shown)
VH: B4 VH with V33I, I34M, D59S, E74K
VL: B4 VL with Q24R, R31S, V33L, D93E
B7: binds [7].

B8: H0L12 (H0-M58 / L12) (antibody, V domains shown)
VH: B4 VH with V33I, I34M, D59S
VL: B4 VL with N28D, R31S, K52Q, L54E, K56Q
With B8 the “fold affinity relative to H0L0” value [2] was ~2 fold, the Kd [3] was 2 nM and the koff [3] was 0.00074 s⁻¹. The kon [3] was 380000 M⁻¹ s⁻¹.
